# In patent US8110672B2, “Promoter engineering and genetic control” (priority 2005, dated 2012):
# B1: PLTetO1: PLteto-1 promoter, sequence SEQ ID NO: 34, relative to which the mutated promoters are defined (nucleic acid)
# DNA: CAATTCCGACGTCTAAGAAACCATTATTATCATGACATTAACCTATAAAAATAGGCGTATCACGAGGCCCTTTCGTCTTCACCTCGAGTCCCTATCAGTGATAGAGATTGACATCCCTATCAGTGATAGAGATACTGAGCACATCAGCAGGACGCACTGACC
# modifications: mutant sequence of bacteriophage lambda tetO promoter
# Columns and labels:
# gfp transcript = experiment: Transcriptional analysis: quantitative RT-PCR of the gfp transcript; type: cell-based, E. coli; settings: cultures grown 3 hours, relative level
# Procedure: Cultures inoculated as previously were grown for 3 hours and the total RNA was extracted from a 1.5 mL sample with a commercial kit (RNEasy, Qiagen Corp). All samples were diluted to a final concentration of 20 μg/mL and stored at −20° C. A commercial kit for RT-PCR (iScript One-Step RT-PCR Kit with SYBR Green, Bio-Rad) was used with a CCD-equipped thermal cycler (iCycler, Bio-Rad) for RT-PCR of the gfp transcript. Primers (sense-[…] (SEQ ID NO: 4) and antisense-[…] (SEQ ID NO: 5)) were used at a final concentration of 100 nM and 20 ng of RNA was used as template in each 50 μL reaction. We performed duplicate cultures for each clone and duplicate extractions for each culture. The threshold cycles for each sample were calculated from the fluorescence data with proprietary software (Bio-Rad, Inc).
# To characterize the promoter library directly at the transcriptional level, the relative mRNA levels of gfp transcripts in the above cultures were determined by quantitative RT-PCR. The high correlation between fluorescence and mRNA level (FIG. 4) confirmed that expression was transcriptionally controlled. The data was obtained where GFP fluorescence levels were modulated by the level of oxygen. In this way, selection for promoters, which had differential expression in high and low oxygen conditions was accomplished.
# CAT = experiment: Chloramphenicol resistance of pZE-promoter-cat constructs (MIC on LB agar); type: cell-based, E. coli; settings: lowest chloramphenicol concentration that inhibited growth; promoter driving cat, LB agar with kanamycin, overnight 37° C.
# Procedure: pZE-promoter-cat plasmids were created by PCR of the CAT gene from pACYC184 using primers CAT_Sense_MluI: […] (SEQ ID NO: 6) and CAT_Anti_KpnI: […] (SEQ ID NO: 7) and ligated into the proper pZE-promoter construct which was previously digested by KpnI and MluI. Exponential-phase cultures grown in LB supplemented with kanamycin were plated onto LB agar supplemented with kanamycin and various concentrations of chloramphenicol ranging from 0 to 500 μg/ml. After overnight incubation at 37° C., the lowest concentration of chloramphenicol that inhibited the growth of a clone was recorded.
# To verify the constitutive nature of all the promoters, each was redeployed into a new construct driving the reporter gene cat. Cultures bearing these constructs were assayed for resistance to chloramphenicol on a rich, solid-phase medium. […] Moreover, these conditions test the promoter library in contrasting medium and growth environments (liquid minimal medium vs. solid complex medium) further underscoring the constitutive nature of the library promoters.
molecule,measurement,setting,value
B1,Relative mRNA,gfp transcript,1
same,Cm MIC,CAT,338 µg/mL
same,Promoter Strength,"gfp; P from Equation 1, pZE-promoter-gfp(ASV) plasmid, M9G/CAA medium, exponential phase, duplicate cultures","145,806.85 relative fluorescence units per absorbance unit per hour"
same,Average Promoter Metric,gfp; average of the scaled mRNA and fluorescence data,0.8685
